Reference: IntAct's records for PubMed 31031754

B1: Phosphatidylinositol 4,5-bisphosphate 3-kinase catalytic subunit delta isoform (Homo sapiens), O00329 (parent)
chain: MPPGVDCPMEFWTKEENQSVVVDFLLPTGVYLNFPVSRNANLSTIKQLLWHRAQYEPLFHMLSGPEAYVFTCINQTAEQQELEDEQRRLCDVQPFLPVLRLVAREGDRVKKLINSQISLLIGKGLHEFDSLCDPEVNDFRAKMCQFCEEAAARRQQLGWEAWLQYSFPLQLEPSAQTWGPGTLRLPNRALLVNVKFEGSEESFTFQVSTKDVPLALMACALRKKATVFRQPLVEQPEDYTLQVNGRHEYLYGSYPLCQFQYICSCLHSGLTPHLTMVHSSSILAMRDEQSNPAPQVQKPRAKPPPIPAKKPSSVSLWSLEQPFRIELIQGSKVNADERMKLVVQAGLFHGNEMLCKTVSSSEVSVCSEPVWKQRLEFDINICDLPRMARLCFALYAVIEKAKKARSTKKKSKKADCPIAWANLMLFDYKDQLKTGERCLYMWPSVPDEKGELLNPTGTVRSNPNTDSAAALLICLPEVAPHPVYYPALEKILELGRHSECVHVTEEEQLQLREILERRGSGELYEHEKDLVWKLRHEVQEHFPEALARLLLVTKWNKHEDVAQMLYLLCSWPELPVLSALELLDFSFPDCHVGSFAIKSLRKLTDDELFQYLLQLVQVLKYESYLDCELTKFLLDRALANRKIGHFLFWHLRSEMHVPSVALRFGLILEAYCRGSTHHMKVLMKQGEALSKLKALNDFVKLSSQKTPKPQTKELMHLCMRQEAYLEALSHLQSPLDPSTLLAEVCVEQCTFMDSKMKPLWIMYSNEEAGSGGSVGIIFKNGDDLRQDMLTLQMIQLMDVLWKQEGLDLRMTPYGCLPTGDRTGLIEVVLRSDTIANIQLNKSNMAATAAFNKDALLNWLKSKNPGEALDRAIEEFTLSCAGYCVATYVLGIGDRHSDNIMIRESGQLFHIDFGHFLGNFKTKFGINRERVPFILTYDFVHVIQQGKTNNSEKFERFRGYCERAYTILRRHGLLFLHLFALMRAAGLPELSCSKDIQYLKDSLALGKTEEEALKHFRVKFNEALRESWKTKVNWLAHNVSKDNRQ

Variants of: B1
Conditions: with p85a_human PIK3R1, P27986
Sequence of p85a_human PIK3R1, P27986 (P27986 whole entry): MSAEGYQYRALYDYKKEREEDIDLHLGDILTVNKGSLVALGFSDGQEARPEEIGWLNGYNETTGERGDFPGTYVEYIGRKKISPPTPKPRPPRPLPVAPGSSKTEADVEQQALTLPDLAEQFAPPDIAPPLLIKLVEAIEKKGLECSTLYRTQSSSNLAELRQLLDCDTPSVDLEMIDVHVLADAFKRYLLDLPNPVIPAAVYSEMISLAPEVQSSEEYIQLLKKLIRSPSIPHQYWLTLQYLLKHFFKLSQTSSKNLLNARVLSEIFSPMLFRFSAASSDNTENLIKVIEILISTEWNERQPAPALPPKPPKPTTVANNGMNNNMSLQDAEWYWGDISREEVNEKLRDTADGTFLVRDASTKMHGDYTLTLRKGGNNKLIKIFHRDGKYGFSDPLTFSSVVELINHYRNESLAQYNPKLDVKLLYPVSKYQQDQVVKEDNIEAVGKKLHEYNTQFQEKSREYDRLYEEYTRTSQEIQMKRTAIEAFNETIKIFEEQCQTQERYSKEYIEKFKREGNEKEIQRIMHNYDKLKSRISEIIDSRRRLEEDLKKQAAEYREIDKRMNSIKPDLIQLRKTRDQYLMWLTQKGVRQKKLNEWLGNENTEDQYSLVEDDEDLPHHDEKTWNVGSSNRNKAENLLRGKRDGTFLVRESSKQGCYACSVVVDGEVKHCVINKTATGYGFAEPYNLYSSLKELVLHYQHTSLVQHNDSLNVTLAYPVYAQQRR

Row | effect of a mutation on the interaction | Variant
1 | with no effect | Y524S
